For test [1], the target named is His-tagged human EphA2 (human, UniProt P29317 24-537). Kind of test: SPR. (In general: SPR reads the build-up and loss of mass on a sensor chip optically.)
Test [2] concerns the target T1, His-tagged mouse EphA2 (mouse, UniProt Q03145 26-538).
T1 chain: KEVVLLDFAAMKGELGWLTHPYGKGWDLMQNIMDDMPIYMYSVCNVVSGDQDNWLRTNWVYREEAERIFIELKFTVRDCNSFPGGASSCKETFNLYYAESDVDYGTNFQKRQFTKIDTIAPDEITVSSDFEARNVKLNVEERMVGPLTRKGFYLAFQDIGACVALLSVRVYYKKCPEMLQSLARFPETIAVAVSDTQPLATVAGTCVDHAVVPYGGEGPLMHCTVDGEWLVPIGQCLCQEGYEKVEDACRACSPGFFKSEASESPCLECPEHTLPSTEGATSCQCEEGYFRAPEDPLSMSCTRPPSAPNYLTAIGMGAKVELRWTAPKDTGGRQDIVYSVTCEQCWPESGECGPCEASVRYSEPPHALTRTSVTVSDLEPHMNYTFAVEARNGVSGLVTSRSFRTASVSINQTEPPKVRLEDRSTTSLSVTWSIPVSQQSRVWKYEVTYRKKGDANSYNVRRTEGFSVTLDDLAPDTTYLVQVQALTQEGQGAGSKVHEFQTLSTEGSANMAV
Kind of test: SPR.

*1 amine or outer side, *2 acyl side, *3 side chain or, on linkers, in order; H or OH if unused. Bridges are numbered along the chain shown (N, C = ends). Primed or numbered codes have the meaning given here. [ ]: non-standard residue; d: D form. The star is where a group is joined. TATA = O=C(CC[*:1])N1CN(C(=O)CC[*:2])CN(C(=O)CC[*:3])C1; NOTA = O=C(O)CN1CCN(CC(=O)O)CCN(CC(=O)*)CC1; Hyp = O=C(O)[C@@H]1C[C@@H](O)CN1; hArg = N=C(N)NCCCC[C@H](N)C(=O)O; PEG2′ = not defined here; Sar = CNCC(=O)O

Sequence of His-tagged human EphA2 (P29317 24-537): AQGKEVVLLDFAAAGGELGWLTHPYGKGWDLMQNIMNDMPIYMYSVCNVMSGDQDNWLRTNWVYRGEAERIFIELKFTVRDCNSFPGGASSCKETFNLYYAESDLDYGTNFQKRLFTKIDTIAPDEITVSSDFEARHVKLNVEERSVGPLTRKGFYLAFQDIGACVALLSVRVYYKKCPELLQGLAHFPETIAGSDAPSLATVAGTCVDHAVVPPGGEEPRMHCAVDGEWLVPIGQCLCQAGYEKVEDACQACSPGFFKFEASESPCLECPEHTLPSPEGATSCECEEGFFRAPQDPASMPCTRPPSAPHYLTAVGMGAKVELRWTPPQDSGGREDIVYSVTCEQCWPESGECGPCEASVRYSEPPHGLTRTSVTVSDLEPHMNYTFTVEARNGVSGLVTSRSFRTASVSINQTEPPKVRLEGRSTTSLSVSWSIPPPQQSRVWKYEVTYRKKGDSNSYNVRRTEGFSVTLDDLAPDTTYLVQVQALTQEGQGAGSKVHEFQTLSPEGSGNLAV

B1: AJ201 (peptide)
peptide: {NOTA-PEG2′}-GR[Sar][Sar][Sar]GA[hArg]DC[Hyp]LVNPLCLHP[dD]W[hArg]C-NH2
modifications: linker 10-17-24 via TATA; not fully specified; also: hydroxyproline, place not given here
In general, koff refers to the first-order rate constant of dissociation. B1: the dissociation rate constant (koff) was found to be 0.00133 s⁻¹ in test [1] and 0.00301 s⁻¹ in test [2].

The values above are taken from PMC11984392 (2025).
